Source: patent US20120315267A1 (GlaxoSmithKline, published 2012)

T1: human GCP-2 (human, UniProt P80162 38-114, limits assumed)
T1 sequence (looked up): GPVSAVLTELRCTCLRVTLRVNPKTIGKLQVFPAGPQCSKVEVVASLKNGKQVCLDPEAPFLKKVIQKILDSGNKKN

T2: human IL-8 (human, UniProt P10145 28-99, limits assumed)
T2 sequence (looked up): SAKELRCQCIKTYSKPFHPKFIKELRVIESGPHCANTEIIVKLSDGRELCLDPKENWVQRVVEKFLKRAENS

T3: human Gro-alpha (human, UniProt P09341 35-107)
T3 sequence (looked up): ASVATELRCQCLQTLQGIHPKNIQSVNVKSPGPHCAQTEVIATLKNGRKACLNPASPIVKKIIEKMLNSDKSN

T4: human ENA-78 (human, UniProt P42830 37-114, limits assumed)
T4 sequence (looked up): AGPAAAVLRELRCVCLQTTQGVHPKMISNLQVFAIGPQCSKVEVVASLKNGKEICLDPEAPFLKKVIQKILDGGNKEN

T5: human NAP2 (human, UniProt P02775 59-128)
T5 sequence (looked up): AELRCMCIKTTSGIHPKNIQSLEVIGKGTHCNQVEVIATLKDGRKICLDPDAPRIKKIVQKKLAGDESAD

T6: human Gro-gamma (human, UniProt P19876 35-107)
T6 sequence (looked up): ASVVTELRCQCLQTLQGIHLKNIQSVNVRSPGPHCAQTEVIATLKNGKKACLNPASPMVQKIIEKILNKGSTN

T7: human Gro-beta (human, UniProt P19875 35-107)
T7 sequence (looked up): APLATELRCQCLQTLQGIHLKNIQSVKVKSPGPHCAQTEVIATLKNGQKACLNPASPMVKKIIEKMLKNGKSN


Columns and labels:
Assay in all cases: cell-based or functional assay
human GCP-2 = biological target: T1, human GCP-2
human IL-8 = biological target: T2, human IL-8
human Gro-alpha = biological target: T3, human Gro-alpha
human ENA-78 = biological target: T4, human ENA-78
human NAP2 = biological target: T5, human NAP2
human Gro-gamma = biological target: T6, human Gro-gamma
human Gro-beta = biological target: T7, human Gro-beta

Binder	FLIPR IC50 (human GCP-2)	FLIPR IC50 (human IL-8)	FLIPR IC50 (human Gro-alpha)	FLIPR IC50 (human ENA-78)	FLIPR IC50 (human NAP2)	FLIPR IC50 (human Gro-gamma)	FLIPR IC50 (human Gro-beta)
2X810.3 (antibody, IgG1, V domains shown) VH: QIQLQQSGPEVVKPGASVKISCKASGYIFTDNYIDWVQQRPGQGLEWIGWIFPGSGNTKYNEKFKGKATLTVDTFSSTAYMQLSSLTSEDTAVYFCAREIDYDYDGFFDVWGAGTTVTVSS VL: DIVMTPSHTFMSTSVGDRVIITSKASQDVGSAVAWYQQKPGQSPTLLIYWASTRHTGVPDRFTGSGSGTDFTLTISNLQSEDLADYFCQQYSTYPLTFGAGTKLELK	24.6 µg/mL	> 67 µg/mL	> 67 µg/mL	14.6 µg/mL	> 67 µg/mL	> 67 µg/mL	> 67 µg/mL
1L132.23 (antibody, IgG1, V domains shown) VH: QVQLQQPGAELVKPGASVKVSCKASGYTFTNYWMHWVRQRPGQGLEWIGRIHPSDNDTNYNQKFKDKATLTVDKSSNTAYMQLSSLTSEDSAVYYCAIGVYDGFIGLWGQGTSVTVSS VL: DIQMTQSPASQSASLGESVTITCLASQTIGTWLAWYQQKPGKSPQLLIYAATRLADGVPSRFSGSGSGTKFSFKISSLQAEDFVSYYCQQLSSTPWTFGGGTKLEIK	> 67 µg/mL	> 67 µg/mL	> 67 µg/mL	> 67 µg/mL	> 67 µg/mL	> 67 µg/mL	0.69 µg/mL
2X352.3 (antibody, IgG1, V domains shown) VH: QIQLVQSGPELKKPGETVKISCKASGYTLTYYGIHWVTQTPGKGLNWMGWINTNTGEPTYVEEFKGRFAFSLETSASTAYLQITDLKNEDTATYFCAKATYDGYSDYWGQGTTLTVSS VL: DIQMTQSPASLSVSVGESVTITCRASENIYSNLAWYQQKQGKSPQLLVYDATNLAHGVPSRFSGSGSGTQFSLRINSLQSEDFGSYYCQHFWGTPLTFGAGTRLELK	> 67 µg/mL	> 67 µg/mL	2.06 µg/mL	4.99 µg/mL	> 67 µg/mL	7.43 µg/mL	1.12 µg/mL
1A1.4C6 (antibody, IgG1, V domains shown) VH: EVQLQQSGPELVKPGASVKISCKASGYTFIDYYMNWVKQSQGKSLEWIGDVNPDDGDTTYNQQFKDKATLTVDKSSSTAYMELRSLTSEDSAVYYCARDDRTSGYFDVWGTGTTVTVSS VL: DIQMTQSTSSLSASLGDRVTISCRASQDIRNYLNWFQQKPDGTVKLLIYYTSIVHSRVPSRFSGSGSGTDYSLTINNLDQEDIATYFCQQANTLPWTFGGGTKLETK	11.2 µg/mL	> 200 µg/mL	2.4 µg/mL	12.3 µg/mL	123 µg/mL	19.2 µg/mL	> 168 µg/mL
2B12.1E1 (antibody, IgG2c, V domains shown) VH: EVQLQQSGPELVKPGASVKISCKASGYTFTDYYMNWVKQSHGKSLEWIGDINPNNGNTNYNQKFKGKATLTVDKSSSTAYMEFRSLTSEDSAVYYCAGLGRIFDYWGQGTTLTVSS VL: ENVLTQSPAIMSASPGEKVTMTCRASSSVSSTFLHWYQQKSGASPKLWIYSTSDLASGVPARFSGSGSGTSYSLTISSVEAEDAATYYCQQYSGYPWTFGGGTKLEIK	40.9 µg/mL	1.6 µg/mL	> 67 µg/mL	> 67 µg/mL	> 67 µg/mL	> 67 µg/mL	> 65.5 µg/mL
1L351.17 (antibody, IgG2b, V domains shown) VH: QAYLQQSGAELVRPGASVKMSCKASGYTFTSYNMHWVKQTPRQGLEWIGAIYPGNGDTSYNQKFKGKATLTVDKSSSTAYMQLSSLTSEDSAVYFCARDLYYFDYWGQGTTLTVSS VL: ENVLTQSPAIMSAFPGEKVTMTCRASSSVSSTYLHWYQQKSGASPKLWIYSTSDLASGVPARFSGSGSGTSYSLTISSVEAEDAATYYCQQFSGYPWTFGGGTKLEIK	> 67 µg/mL	> 67 µg/mL	1.92 µg/mL	> 67 µg/mL	> 67 µg/mL	3.17 µg/mL	1.02 µg/mL

Now from value to binder:

FLIPR IC50 (human GCP-2)	FLIPR IC50 (human IL-8)	FLIPR IC50 (human Gro-alpha)	FLIPR IC50 (human ENA-78)	FLIPR IC50 (human NAP2)	FLIPR IC50 (human Gro-gamma)	FLIPR IC50 (human Gro-beta)	Binder
> 200 µg/mL	> 200 µg/mL	> 200 µg/mL	4.7 µg/mL	> 200 µg/mL	> 200 µg/mL	77.4 µg/mL	5D2.2D10 (antibody, V domains shown) VH: QIQLVQSGPELKKPGETVKISCKASGYIFTAYGMSWVKQAPGKGLKWMGWINTYSGVPTYADHFKGRFDFSLETSASTAYLQINNLKNEDTATYFCARPTVVDPWYFDVWGTGTTVTVSS VL: DIQMTQSPASLSVSVGETVTITCRASENIYSNLAWYQQKQGKSPQLLVYAATNLGDGVPSRFSGSGSGTQYSLKINSLQSEDFGSYYCQHFWTTPWTFGGGTKLEIK
6.6 µg/mL	3.4 µg/mL	> 67 µg/mL	14.4 µg/mL	> 67 µg/mL	> 67 µg/mL	> 67 µg/mL	9D12.1H4 (antibody, IgG1, V domains shown) VH: EVQLQQSGPELVKPGASVRMSCKASGNTVIDYNIHWVKQSQGKSLEWIGYINPNSGGTGYNEKFKDKATLTINKSSSTAHMDLRSLTSEDSAVYYCTRFDFWGQGTTLTVSS VL: DVLMTQTPLSLPVSLGDQASISCRSTQSIVPVNGNTHLEWYLHKPGQSPKLLIYKVSNRFSGVPDRFSGSGSGTDFTLKISRVEAEDLGVYYCFQASHVPWTFGGGTKLEIK
> 67 µg/mL	> 67 µg/mL	> 67 µg/mL	2.6 µg/mL	> 67 µg/mL	> 67 µg/mL	> 67 µg/mL	2X907.15 (antibody, IgG1, V domains shown) VH: EVKLVESGGGLVKPGGSLKLSCAASGFTFSDYYMYWVRQSPEKRLEWVATVSDVGSYTYYSGSVRGRFTISRDNAKNNLYLQMSSLQSEDTAIYYCSRDRTLDYWGQGTSVIVTS VL: QIVLTQSPAIMSASPGEKVTITCNASSSVSYMHWFQQKPGTSPKLWIYSTSNLASGVPARFSGSGSGTSYSLTISRMEAEDAATYYCHQRSSFPPTFGGGTKLEIK
> 200 µg/mL	2.5 µg/mL	> 146 µg/mL	> 200 µg/mL	> 200 µg/mL	144 µg/mL	81.6 µg/mL	17D1.1D2 (antibody, IgG2c, V domains shown) VH: EVQLQQSGPELVKPGASVKISCKASGYTFTDYYMNWLRQSHGKSLEWIGDINPNNGGTNYNQKFKNKATLTVDKSSSTAYMELRSLTSEDSAVFYCAGLGRIFDYWGQGTTLTVSS VL: ENVLTQSPAIMSAFPGEKVTMTCRASSSVSSTYLHWYQQKSGASPKLWIYSTSDLASGVPARFSGSGSGTSYSLTISSVEAEDAATYYCQQFSGYPWTFGGGTKLEIK
124 µg/mL	> 200 µg/mL	9.9 µg/mL	2.4 µg/mL	> 200 µg/mL	> 200 µg/mL	> 200 µg/mL	7A12.1F10 (antibody, IgG1, V domains shown) VH: QVQLQQSGAELVKPGASVKLSCKASGYIFTSNDINWVRQRPEQGLEWIGWIFPGDNSTKFNEKFRDKATLTTDKSSSTAYMQLSGLTSEDSAVYFCATFYGSTYGYYFDYWGQGTTLTVSS VL: DIVMTQSHKFMSTSVGDRVSITCKASQDVGTAVAWYQQKPGQSPKLLIYWTDTRHTGVPDRFTGSGSGTDFTLTISNVESEDCVDYFCHQYNNYPLTFGAGTKLELK
